{"source": "patent US20150086555A1", "about": "(THERACLONE SCIENCES, published 2015)"}
{"biological_target": "hemagglutinin (HA) of influenza A/Japan/305/57 (H2N2) on whole virions (Influenza A virus A/Japan/305/1957(H2N2), UniProt P03451 16-562)", "experiment": "ELISA; BCC supernatant on coated inactivated whole virions", "units": {"ELISA virus binding (OD450)": "OD450"}}
{"binder": "TCN-557 (5081_A04) (antibody, V domains shown) VH: QVQLVQSGAEVKKPGASVKVSCKASGHTFTGYYIHWVRQAPGQGLEWMGWINPDSGATSSAQNFQGRVTMTGDTSSSTAYMELSRLSFDDTAVYYCARVLFTSPFDFWGEGTLVTVSS VL: QAVVTQEPSLAVSPGGTVTLTCGSSTGAVTRGHYPYWFQQKPGQAPRALIYDSAGNRHSWTPARFSGSLLGGKAALTLSGAQPEDEAEYYCLLSYSGVWVFGGGTKLTVL", "ELISA virus binding (OD450)": 2.7}
{"biological_target": "hemagglutinin on live influenza A virus, A/California/4/09 H1N1 (Influenza A virus …)", "experiment": "cell-based or functional assay", "units": {"% Neutralization": "%"}}
{"binder": "TCN-537 (3194_D21) (antibody, V domains shown) VH: QVQLQQWGSGLLKPSETLSLTCAVYGGSFRDDYWTWIRQPPGKGLEWIGEINHSGRTNYNPSLKSRVTISVDTSLKQFSLKVISVTAADTAVYYCARGTSHVSRYFDWLPPTNWFDPWGQGTQVTVSS VL: DIVLTQSPGTLSLSPGERATLSCRASQSVSSSYLAWYQQKPGQAPRLVMYGAATRATGIPDRFSGSGSGPDFTLTISRLEPEDFAMYYCQQYGNSPITFGQGTRLEIK", "% Neutralization": 71}
{"binder": "TCN-538 (3206_O17) (antibody, V domains shown) VH: QITLKESGPTLVKPTQTLTLTCVFSGFSLSITGVRVGWIRQPPGKALEWLALISWDDEKHYSPSLQSRLTITKDTSKNQVVLTMTNLDPVDTATYYCARSTDRGHVLRYFGWMLPGDAFDVWGQGTMVTVSS VL: DIVMTQSPDFLPVSLGERATINCKSSQRVLYSSNNKNYLAWYQLKPGQPPKLIIYWASTRESGVPDRFSGSGSGTEFTLTISSLQAEDVAVYYCQQYYSRPYTFGQGTKLEIK", "% Neutralization": 66}
{"binder": "TCN-536 (5095_N01) (antibody, V domains shown) VH: QVQLQQWGAGLLKPSETLSLTCAVYGGSFSVSGYYWSWIRQPPGRGLEWIGEISHGGSTNYNPSLKSRVTISVDTTKNQFSLRLSSVTAADTAVYYCARGTDPDTEVYCRVGNCAAFDYWGQGSLVTVSS VL: EIILAQSPGTLSLSPGERATLSCRASQFVSTRSLAWYQQRPGQAPRLLIYGASSRATGIPDRFSGSGSGTDFTLTISRLEPEDFAVYYCQHYGYSPRYAFGQGSKVEIK", "% Neutralization": 18.8}
{"binder": "TCN-535 (5246_P19) (antibody, V domains shown) VH: QVQLVQSGSEVKKPGTSVKVSCTASGSVFTNYGISWVRQAPGQGLEWMGGIIPLFGAAKYAQKFQGRVTITADESTKTVYMELSRLTSKDTAIYFCAKAPRVYEYYFDQWGQGTPVTVSS VL: EIVLTQSPGTLSLSPGERATLSCRASQSVSSSQLAWYQQKPGQAPRLIIYGASTRATGIPDRFSGSGSGTDFTLTIGRLEPEDFAVFFCQQYSTSPPTFGQGTKVDFK", "% Neutralization": 97.3}
{"binder": "TCN-504 (3251_K17) (antibody, V domains shown) VH: QVQLQESGPGLVKPSETLSLTCAVSGVSISNIDFYWGWIRQPPGKGLEWIGNIYYTGITFYNPSLSSRVAISIDTSKNQFSLTLTSVTAADTAMYYCARHYGDSEAINDAFDIWGQGTMLTVSS VL: EIVMTQSPATLSVSPGERATLSCRASQSVGNSLAWYQQRPGQAPRLLIYGASTRATGIPPRFSGSGSGTEFTLTISSLQTEDFAVYYCQQYINWRPLSFGGGTKVEIK", "% Neutralization": 0}
{"binder": "TCN-534 (5249_B02) (antibody, V domains shown) VH: QVQLVQSGAEVKKPGSSVKVSCRESGGTFNGYTITWVRQAPGQGLEWMGGIIPMMGTVNYAQKLQGRVTITTDYFTKTAYMDLNNLRSEDTAMYYCVKIRYTGQQLLWGQGTLVTVSS VL: DIQMTQSPSTLSASIGDRVTITCRASQSIASWLAWYQQKPGKAPKLLIYEAVNLESGVPSRFSGSGSGTDFTLTISSLQPDDFATYFCQHYGTISQTFGGGTKVEIK", "% Neutralization": 96.4}
{"binder": "TCN-539 (5056_A08) (antibody, V domains shown) VH: QVQLVESGGGVVQPGRSLRLSCAASEITFITYAMHWVRQAPGKGLEWVALISDDGSNKFYADSVKGRFTISRDNSKNTLYLQMNSLRAEDTAAYYCAREGVYFDSGTYRGYFDYWGQETLVTVSS VL: EIVLTQSPATLSLSPGERATLSCRASQSVSSYLAWYQQKPGQAPRLLIYDASNRATGIPARFSGSGSGTDFTLTISSLEPEDFAVYYCQQRSHWPPITFGQGTRLEIK", "% Neutralization": 0}
